Changes are numbered by the printed parent chain.
B1: mAb2 of Tables 1-3, caninized anti-NGF antibody, canine IgGB (65), WT (antibody, part only; not given: Anti-NGF heavy and light variable domains, part only)
heavy, part: ASTTAPSVFPLAPSCGSTSGSTVALACLVSGYFPEPVTVSWNSGSLTSGVHTFPSVLQSSGLYSLSSMVTVPSSRWPSETFTCNVAHPASKTKVDKPVPKRENGRVPRPPDCPKCPAPEMLGGPSVFIFPPKPKDTLLIARTPEVTCVVVDLDPEDPEVQISWFVDGKQMQTAKTQPREEQFNGTYRVVSVLPIGHQDWLKGKQFTCKVNNKALPSPIERTISKARGQAHQPSVYVLPPSREELSKNTVSLTCLIKDFFPPDIDVEWQSNGQQEPESKYRTTPPQLDEDGSYFLYSKLSVDKSRWQRGDTFICAVMHEALHNHYTQESLSHSPGK
B2: mAb1, caninized anti-IL31 antibody 34D03, canine IgGB, N434R (antibody)
heavy: EVQLVESGGDLVKPGGSLRLSCVASGFTFSNYGMSWVRQAPGKGLQWVATISYGGSYTYYPDNIKGRFTISRDNAKNTLYLQMNSLRAEDTAMYYCVRGYGYDTMDYWGQGTLVTVSSASTTAPSVFPLAPSCGSTSGSTVALACLVSGYFPEPVTVSWNSGSLTSGVHTFPSVLQSSGLYSLSSMVTVPSSRWPSETFTCNVAHPASKTKVDKPVPKRENGRVPRPPDCPKCPAPEMLGGPSVFIFPPKPKDTLLIARTPEVTCVVVDLDPEDPEVQISWFVDGKQMQTAKTQPREEQFNGTYRVVSVLPIGHQDWLKGKQFTCKVNNKALPSPIERTISKARGQAHQPSVYVLPPSREELSKNTVSLTCLIKDFFPPDIDVEWQSNGQQEPESKYRTTPPQLDEDGSYFLYSKLSVDKSRWQRGDTFICAVMHEALHRHYTQESLSHSPGK
light: EIVMTQSPASLSLSQEEKVTITCKASQSVSFAGTGLMHWYQQKPGQAPKLLIYRASNLEAGVPSRFSGSGSGTDFSFTISSLEPEDVAVYYCQQSREYPWTFGQGTKLEIKRNDAQPAVYLFQPSPDQLHTGSASVVCLLNSFYPKDINVKWKVDGVIQDTGIQESVTEQDKDSTYSLSSTLTMSSTEYLSHELYSCEITHKSLPSTLIKSFQRSEC
notes: VH/VL: the caninized 34D03 entries of the listing; also called ID No. 17; copies: 2 + 2
B3: mAb1, caninized anti-IL31 antibody 34D03, canine IgGB, N434T (antibody)
heavy: B2 heavy with R440T
light: B2 light
notes: VH/VL: the caninized 34D03 entries of the listing; also called ID No. 19; copies: 2 + 2
B4: mAb1, caninized anti-IL31 antibody 34D03, canine IgGB, N434S (antibody)
heavy: B2 heavy with R440S
light: B2 light
notes: VH/VL: the caninized 34D03 entries of the listing; also called ID No. 18; copies: 2 + 2
B5: mAb1, caninized anti-IL31 antibody 34D03, canine IgGB, N434W (antibody)
heavy: B2 heavy with R440W
light: B2 light
notes: VH/VL: the caninized 34D03 entries of the listing; also called ID No. 21; copies: 2 + 2
B6: mAb1, caninized anti-IL31 antibody 34D03, canine IgGB, N434V (antibody)
heavy: B2 heavy with R440V
light: B2 light
notes: VH/VL: the caninized 34D03 entries of the listing; also called ID No. 20; copies: 2 + 2

Assays:
[1] = target: canine FcRn complex (FcRn-α subunit and β-microglobulin) (canine); assay: SPR (Biacore), FcRn amine-coupled to CM5, IgG flowed, pH 6, 15 C
[2] = target: NGF (target protein of mAb2); assay: cell-based or functional assay
[3] = target: NGF (target protein of mAb2); assay: SPR (Biacore T200), target amine-coupled to CM5, antibody flowed, 15 C, 1:1 model
[4] = target: T1, canine FcRn complex (FcRn-α subunit and β-microglobulin) (canine, UniProt A0A8I3PFR8 25-347, biotin on the BAP tag by BirA (Example 5 only)); assay: SPR (Biacore), biotinylated FcRn on SA chip, IgG flowed, pH 6, 15 C
[5] = target: T1, canine FcRn complex (FcRn-α subunit and …); assay: SPR (Biacore), biotinylated FcRn on SA chip, IgG flowed, pH 7.4, 15 C

T1 sequence (A0A8I3PFR8 entry or part of it, one chain of several): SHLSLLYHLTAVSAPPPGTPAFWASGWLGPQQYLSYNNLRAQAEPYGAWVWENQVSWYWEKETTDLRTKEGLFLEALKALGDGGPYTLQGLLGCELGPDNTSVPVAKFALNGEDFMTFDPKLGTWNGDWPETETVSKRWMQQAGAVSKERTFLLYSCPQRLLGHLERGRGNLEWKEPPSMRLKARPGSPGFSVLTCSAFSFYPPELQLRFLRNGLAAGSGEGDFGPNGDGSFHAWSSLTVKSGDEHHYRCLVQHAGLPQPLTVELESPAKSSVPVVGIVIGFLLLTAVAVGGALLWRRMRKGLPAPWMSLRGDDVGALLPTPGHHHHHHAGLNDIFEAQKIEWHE

Row | Binder | Kd [1] [nM] | IC50 (cell based potency assay) [2] [nM] | Kd [3] [nM] | Kd [4] [nM] | Kd [5] [nM]
1 | B1 | 57.2 | 23.7 | 0.0851 | – | –
2 | B2 | – | – | – | 0.906 | 3.11
3 | B3 | – | – | – | 34.2 | 554
4 | B4 | – | – | – | 20.2 | 6960
5 | B5 | – | – | – | 1.98 | 25300
6 | B6 | – | – | – | 6.16 | 2750

Reference: patent publication US20260193342A1 (ZOETIS SERVICES, published 2026)
